Experimental data as given in paper PMC11776367, “Biochemical and Structural Characterisation of a Bacterial Lactoperoxidase” (Chembiochem, 2024).

Key:
Assay in all cases: purified protein
Details in all cases: 0.5 mM H2O2, 50 mM KPi, 150 mM NaCl, pH 7.0, 25 °C
COc1ccccc1O = tested on: COc1ccccc1O
I = tested on: I
purified protein [1] = substrate: COc1cccc(OC)c1O; type: biochemical, cyanobacterium TDX16
purified protein [2] = substrate: COc1ccccc1O; type: biochemical, cyanobacterium TDX16
purified protein [3] = substrate: I; type: biochemical, cyanobacterium TDX16

Molecule | Km (COc1ccccc1O) [mM] | kcat (COc1ccccc1O) [s⁻¹] | kcat/Km (COc1ccccc1O) [M⁻¹ s⁻¹] | Km (I) [mM] | kcat (I) [s⁻¹] | kcat/Km (I) [M⁻¹ s⁻¹] | Km (purified protein [1]) [mM] | kcat (purified protein [1]) [s⁻¹] | kcat/Km (purified protein [1]) [M⁻¹ s⁻¹] | Km (purified protein [2]) [mM] | kcat (purified protein [2]) [s⁻¹] | kcat/Km (purified protein [2]) [M⁻¹ s⁻¹] | Km (purified protein [3]) [mM] | kcat (purified protein [3]) [s⁻¹] | kcat/Km (purified protein [3]) [M⁻¹ s⁻¹]
bovine LPO (Bos taurus) | 22 | 10 | 500 | 14 | 206 | 15000 |  |  |  |  |  |  |  |  | 
CyanoPOX (cyanobacterium TDX16) (protein, Predicted protein 556 residues; synthetic codon-optimised gene, His-tagged (calculated 58 kDa), E. coli NEB10beta, monomer) AQNRTIDGTDNNLSHNVWGSTNQHLDRAGPAAYADGMSMPAGGSRPSARAVSNGIAAQTGSMLNDRMLSDWVWQWGQFLDHDLDLTDAASPAESFPIPVPMGDPFFDPFNTGTQTIGLSRSAYDPATGSVDARQQMNQITSWIDASNVYGSDMTRANALRTMSGGRLATSAGDLLPFNTGGLPNAGGTSPSLFLAGDVRSNEQSGLAAVHTLFVREHNRLADQIAAANPGMGDEDIYQQARKIVGAQMQIITYNEFLPALLGSAAPSPMSIGYDDSINPNIMNEFANACYRVGHTMLSPTILRLDNAGNVIPHGNLALQDAFFNPNRIINEGGIAPILKGLASQAMQEIDNKIVDDVRNFLFGPPGSGGLDLASLNIQRGRDHGLPDYNSTRVMMGLTSVSSFADISSDPAVQAALMSLYGTVNDIDLWVGALAEDHLAGSSVGELIAAVLGEQFTRLRDGDRYWYERDDFFVNNPSLLAELQATRLSDIIRRNSDITNIQDNVFLIPEPATLGLLMFGAAFLRKRRS |  |  |  |  |  |  | 35 | 620 | 18000 | 59 | 135 | 2000 | 7 | 885 | 126000
